Source: patent US20140298544A1, “Engineered PEP carboxylase variants for improved plant productivity” (PIONEER HI BRED INTERNATIONAL INC, priority 2011, published 2014)
Residue numbers refer to the chain shown, from its start. Where two headings read alike, the source gives them in different places.

Columns and labels:
maize C4 PEPC [1] = test: Kinetic and regulatory properties of PEPC variants (expressed in E. coli); format: biochemical; settings: for HCO3 S0.5 / HCO3 kcat/S0.5 / HCO3 kcat/S0.5 % wt: bicarbonate substrate; for Ki / Malate Ki % wt: inhibitor malate
From the text: (§1) Libraries of modified PEPC polynucleotides were generated using recursive sequence recombination methods (Stemmer, Proc. Natl. Acad. Sci USA 91:10747-10751; Ness, et. al., Nature Biotechnology 20:1251-1255), also known as gene shuffling methods. These libraries incorporated diversity from related PEPC enzymes and also incorporated other designed and random changes. The starting polynucleotide sequence in which the diversity was incorporated was the maize C4 PEPC as shown in SEQ ID NO: 25. Each PEPC variant was expressed in E. coli as a thioredoxin fusion using the pET 32 expression vector (Novagen) with the E. coli expression strain Rosetta gami 2 BL21 DE3 pLYS S. Cultures expressing the variants were grown in 96-well culture blocks, lysed, and then PEPC activity and PEPC protein abundance were determined. The variants with high specific activity were subjected to further rounds of shuffling, for a total of 3 rounds. Examples of nucleotide and amino acid sequences of PEPC variants obtained with this method are SEQ ID NO: 4 to 24.
(§2) Detailed kinetic studies of PEPC variants were done in accordance with methods known in the art. See, for example, Tovar-Mendez et al. (2000) Plant Physiol. 123: 149-160; Tover-Mendez et al. (1998) Biochem. J. 332: 633-642.
(§3) PEPC variants had several improved properties in comparison with wild type PEPC, including greater affinity (lower S0.5 values) with respect to the bicarbonate substrate, greater Kcat/S0.5 values with the bicarbonate or PEP substrates, greater activation (lower A0.5 values) with […] or glycine as activators and greater Ki values with malate as inhibitor.

maize C4 PEPC [2] = biological target: T1, maize C4 PEPC (Zea mays, UniProt P04711, A239D/A736P/F800W/F886Y/H119R/H347Q/P482S/R192G/R495K/R556K/R807K/S350A/V555I); test: as above; format: biochemical; settings: relative to wild type
T1 construct: thioredoxin; made in house; host or cells: E. coli Rosetta gami 2 BL21 DE3 pLYS S
From the text: as §1, §2, §3

[3] = PEP substrate, relative to wild type
[4] = PEP substrate, with activators vs no activators
[5] = activator Glc-6-P, read-out: Glc-6-P A0.5
[6] = activator Glc-6-P, relative to wild type
[7] = activator glycine, read-out: Glycine A0.5
[8] = activator glycine, relative to wild type

B1: 3D10-G8: maize C4 PEPC variant, 14 amino acid substitutions, SEQ ID NO: 20 (protein)
chain: MASTKAPGPGEKHHSIDAQLCQLVPGKVSEDDKLIEYDALLVDRFLNILQDLHGPSLREFVQECYEVSADYEGKGDTTKLGELGAKLTGLAPADAILVASSILHMLNLANLAEEAQIALRRRNSKLKKGGFADEGSATTESDIEETLKRLVSEVGKSPEEVFEALKDQTVDLVFTAHPTQSARRSLLQKNARIRNCLTQLNAKDITDDDKQELDEALQREIQAAFRTDEIRRAQPTPQDEMRYGMSYIHETVWKGVPKFLRRVDTALKNIGINERLPYNVSLIRFSSWMGGDRDGNPRVTPEVTRDVCLLARMMAANLYIDQIEELMFELSMWRCNDELRVRAEELHASAGSKVTKYYIEFWKQIPPNEPYRVILGHVRDKLYNTRERARHLLASGVSEISAESSFTSIEEFLEPLELCYKSLCDCGDKAIADGSLLDLLRQVFTFGLSLVKLDIRQESERHTDVIDAITTYLGIGSYREWSEDKRQEWLLSELKGKRPLLPPDLPQTDEIADVIGAFHVLAELPPDSFGPYIISMATAPSDVLAVELLQRECGIKQPLPVVPLFERLADLQSAPASVERLFSVDWYMDRIKGKQQVMVGYSDSGKDAGRLSAAWQLYKAQEEMAQVAKRYGVKLTLFHGRGGTVGRGGGPTHLAILSQPPDTINGSIRVTVQGEVIEFCFGEEHLCFQTLQRFTAATLEHGMHPPVSPKPEWRKLMDEMAVVATEEYRSVVVKEPRFVEYFRSATPETEYGRMNIGSRPAKRRPGGGITTLRAIPWIFSWTQTRFHLPVWLGVGAAFKWAIDKDVKNFQVLKEMYNEWPFFRVTLDLLEMVFAKGDPGIAGLYDELLVAEELKPFGKQLRDKYVETQQLLLQIAGHKDILEGDPFLKRGLVLRNPYITTLNVFQAYTLKRIRDPNFKVTPQPPLSKEFADENKPAGLVKLNPASEYPPGLEDTLILTMKGIAAGMQNTG
modifications: shuffled variant
PEP, no activators kcat/S0.5 (maize C4 PEPC [1]; PEP substrate): 86200 M⁻¹ s⁻¹
PEP, no activators kcat/S0.5 % wt (maize C4 PEPC [1]; [3]): 253 % wt
PEP, with activators kcat/S0.5 (maize C4 PEPC [1]; PEP substrate): 4.613e+06 M⁻¹ s⁻¹
kcat/S0.5 Fold incr. (maize C4 PEPC [1]; [4]): 53.5 Fold incr.
PEP, with activators kcat/S0.5 % wt (maize C4 PEPC [1]; [3]): 189 % wt
Glc-6-P Vmax Fold incr (maize C4 PEPC [1]; activator Glc-6-P): 2.5 Fold incr
EC50 (maize C4 PEPC [1]; [5]): 0.92 mM
Glc-6-P A0.5 % wt (maize C4 PEPC [1]; [6]): 14 % wt
Glycine Vmax Fold incr (maize C4 PEPC [1]; activator glycine): 3.6 Fold incr
EC50 (maize C4 PEPC [1]; [7]): 0.23 mM
Glycine A0.5 % wt (maize C4 PEPC [1]; [8]): 6 % wt
HCO3 S0.5 (maize C4 PEPC [1]): 0.0255 mM
HCO3 kcat/S0.5 (maize C4 PEPC [1]): 3.2e+06 M⁻¹ s⁻¹
HCO3 kcat/S0.5 % wt (maize C4 PEPC [1]; relative to wild type): 151 % wt
Ki (maize C4 PEPC [1]): 5 mM
Malate Ki % wt (maize C4 PEPC [1]; relative to wild type): 1250 % wt

B2: 3D37-F3: maize C4 PEPC variant, 10 amino acid substitutions, SEQ ID NO: 10 (protein)
chain: MASTKAPGPGEKHHSIDAQLRQLVPGKVSEDDKLIEYDALLVDRFLNILQDLHGPSLREFVQECYEVSADYEGKGDTTKLGELGAKLTGLAPADAILVASSILHMLNLANLAEEVQIARRRRNSKLKKGGFADEGSATTESDIEETLKRLVSEVGKSPEEVFEALKNQTVDLVFTAHPTQSARRSLLQKNAGIRNCLTQLNAKDITDDDKQELDEALQREIQAAFRTDEIRRAQPTPQDEMRYGMSYIHETVWKGVPKFLRRVDTALKNIGINERLPYNVSLIRFSSWMGGDRDGNPRVTPEVTRDVCLLARMMAANLYIDQIEELMFELSMWRCNDELRVRAEELQSSAGSKVTKYYIEFWKQIPPNEPYRVILGHVRDKLYNTRERARHLLASGVSEISAESSFTSIEEFLEPLELCYKSLCDCGDKAIADGSLLDLLRQVFTFGLSLVKLDIRQESERHTDVIDAITTHLGIGSYREWSEDKRQEWLLSELKGKRPLLPPDLPQTDEIADVIGAFHVLAELPPDSFGPYIISMATAPSDVLAVELLQRECGIKQPLPVVPLFERLADLQSAPASVERLFSVDWYMDRIKGKQQVMVGYSDSGKDAGRLSAAWQLYRAQEEMAQVAKRYGVKLTLFHGRGGTVGRGGGPTHLAILSQPPDTINGSIRVTVQGEVIEFCFGEEHLCFQTLQRFTAATLEHGMHPPVSPKPEWRKLMDEMAVVATEEYRSVVVKEPRFVEYFRSATPETEYGRMNIGSRPAKRRPGGGITTLRAIPWIFSWTQTRFHLPVWLGVGAAFKWAIDKDVKNFQVLKEMYNEWPFFRVTLDLLEMVFAKGDPGIAGLYDELLVAEELKPFGKQLRDKYVETQQLLLQIAGHKDILEGDPYLKQGLVLRNPYITTLNVFQAYTLKRIRDPNFKVTPQPPLSKEFADENKPAGLVKLNPASEYPPGLEDTLILTMKGIAAGMQNTG
modifications: shuffled variant
affinity (S0.5 value) for bicarbonate, in words (maize C4 PEPC [2]): higher affinity
kcat/S0.5 Fold incr. (maize C4 PEPC [1]): 70.1 Fold incr.
PEP, no activators kcat/S0.5 (maize C4 PEPC [1]; PEP substrate): 71500 M⁻¹ s⁻¹
PEP, no activators kcat/S0.5 % wt (maize C4 PEPC [1]; [3]): 210 % wt
PEP, with activators kcat/S0.5 (maize C4 PEPC [1]; PEP substrate): 5.01e+06 M⁻¹ s⁻¹
PEP, with activators kcat/S0.5 % wt (maize C4 PEPC [1]; [3]): 205 % wt
Glc-6-P Vmax Fold incr (maize C4 PEPC [1]; activator Glc-6-P): 7.2 Fold incr
EC50 (maize C4 PEPC [1]; [5]): 4.46 mM
Glc-6-P A0.5 % wt (maize C4 PEPC [1]; [6]): 66 % wt
Glycine Vmax Fold incr (maize C4 PEPC [1]; activator glycine): 5.8 Fold incr
EC50 (maize C4 PEPC [1]; [7]): 0.93 mM
Glycine A0.5 % wt (maize C4 PEPC [1]; [8]): 26 % wt
HCO3 S0.5 (maize C4 PEPC [1]): 0.0167 mM
HCO3 kcat/S0.5 (maize C4 PEPC [1]): 3.512e+06 M⁻¹ s⁻¹
HCO3 kcat/S0.5 % wt (maize C4 PEPC [1]; relative to wild type): 166 % wt
Ki (maize C4 PEPC [1]): 2.4 mM
Malate Ki % wt (maize C4 PEPC [1]; relative to wild type): 600 % wt
Ki for malate, in words (maize C4 PEPC [1]; relative to wild type): increased Ki
activation by glucose-6-phosphate, in words (maize C4 PEPC [1]; relative to wild type): increased activation
activation by glycine, in words (maize C4 PEPC [1]; relative to wild type): increased activation

B3: WT: wild-type maize C4 PEPC enzyme, SEQ ID NO: 26 (protein)
chain: B2 chain with R119H, G192R, Q347H, A350S, K495R, I555V, K556R, W800F, K807R, Y886F
modifications: Zea mays
PEP, no activators kcat/S0.5 (maize C4 PEPC [1]; PEP substrate): 34100 M⁻¹ s⁻¹
PEP, no activators kcat/S0.5 % wt (maize C4 PEPC [1]; [3]): 100 % wt
PEP, with activators kcat/S0.5 (maize C4 PEPC [1]; PEP substrate): 2.443e+06 M⁻¹ s⁻¹
kcat/S0.5 Fold incr. (maize C4 PEPC [1]; [4]): 71.6 Fold incr.
PEP, with activators kcat/S0.5 % wt (maize C4 PEPC [1]; [3]): 100 % wt
Glc-6-P Vmax Fold incr (maize C4 PEPC [1]; activator Glc-6-P): 23.1 Fold incr
EC50 (maize C4 PEPC [1]; [5]): 6.8 mM
Glc-6-P A0.5 % wt (maize C4 PEPC [1]; [6]): 100 % wt
Glycine Vmax Fold incr (maize C4 PEPC [1]; activator glycine): 15.9 Fold incr
EC50 (maize C4 PEPC [1]; [7]): 3.62 mM
Glycine A0.5 % wt (maize C4 PEPC [1]; [8]): 100 % wt
HCO3 S0.5 (maize C4 PEPC [1]): 0.0282 mM
HCO3 kcat/S0.5 (maize C4 PEPC [1]): 2.122e+06 M⁻¹ s⁻¹
HCO3 kcat/S0.5 % wt (maize C4 PEPC [1]; relative to wild type): 100 % wt
Ki (maize C4 PEPC [1]): 0.4 mM
Malate Ki % wt (maize C4 PEPC [1]; relative to wild type): 100 % wt
